This passage reports formation of M (mechanostable) conformers, AFM-SMFS results from patent US20180125921A1, “USE OF QBP1 PEPTIDE FOR THE INHIBITION OF MEMORY CONSOLIDATION” (CONSEJO SUPERIOR DE INVESTIGACIONES CIENTÍFICAS, priority 2015, published 2018).

The target of the experiment is Orb2A PLD (Drosophila), Q9VSR3. The experiment can be described thus: cell-based or functional assay.

In the case of Ac-WKWWPGIF-NH2 [minimal active core of QBP1 (QBP1 fragment), Ac-WKWWPGIF-NH2], the formation of M (mechanostable) conformers, AFM-SMFS came out at 16.1%.
